Molecular target: Smad3
Assay: cell-based or functional assay

scleraxis (mouse Scx expressed from pECE-HA-FLAG-Scx) (from UniProt Q64124 1-207)
activation of the collagen 1α2 proximal promoter (luciferase assay, NIH 3T3 fibroblasts co-transfected with Scx and Smad3): 35 % increase

From patent publication US20140288003A1
